In the Human Domainome abundance scans (Beltran et al. 2025):

B1: Nanos homolog 2, residues 63 to 115; numbered along this chain, P60321 (parent)
chain: CNFCKHNGESRHVYSSHQLKTPDGVVVCPILRHYVCPVCGATGDQAHTLKYCP

Variants of: B1
Assay: abundance fitness (aPCA) (normalised: wild type 0, dead -1); higher = more abundant; growth selection in yeast, the domain comes from the species named
Settings: Homo sapiens

Abundance fitness, by site and new letter:
S10: D -0.158 | Q 0.066 | A -0.172
H47: K -0.616 | D -0.463 | W -0.781 | M -0.647 | V -0.628 | R -0.443 | I -0.981
H12: Y -0.101 | I -0.043 | F -0.031 | L -0.036 | K 0.096 | Q -0.013
H17: K -0.6 | Q -0.452 | C -0.737 | V -0.769 | N -0.711 | G -0.618 | L -0.756 | W -1.14
S16: W -0.557 | E -0.163 | A -0.117 | M -0.047 | D -0.08 | G -0.035 | F -0.594 | T -0.335 | Y -0.489 | I -0.406 | P -0.459
T48: S -0.19 | R -0.247 | E 0.091 | D -0.347
V35: N -0.254 | A -0.209 | P -0.341 | L -0.234 | C -0.253
H6: P -0.277 | E -0.027 | F -0.147 | L -0.096 | S 0.039
Q45: Y -0.168 | T -0.074 | F -0.043 | I -0.214 | E -0.186 | G -0.003 | M 0.119 | V -0.047 | W -0.368
Y34: M -0.092 | T 0.036 | R 0.046 | C -0.066 | Q 0.013 | G -0.229
P53: G -0.359 | S -0.439
G8: R -0.063 | H -0.092 | A -0.196 | T -0.359 | D -0.223
V26: R -0.523 | L -0.036 | P -0.359 | M -0.292 | I 0.033 | A -0.369 | Q -0.305 | Y -0.427 | C -0.032
A46: S -0.241 | G -0.133 | H -0.124 | R -0.322 | Q -0.587 | N -0.694 | V -0.192
Q18: H 0.081 | T -0.145 | A 0.056 | V 0.065 | D 0.101 | Y -0.149 | R -0.114 | S -0.104
P29: D -0.543 | K -0.364 | M -1.05 | C -1.07 | S -0.65 | W -1.07 | N -0.779 | A -0.786 | L -0.978
K5: P -0.691 | W -0.4 | I -0.054 | D -0.401 | C -0.249
P37: K 0.139 | S 0.156 | H -0.034 | A -0.231 | E 0.149 | T -0.09 | N 0.078 | M -0.101 | L -0.214 | Q 0.324
C36: M -0.75 | H -0.623 | E -0.627 | Y -0.726 | F -0.888 | W -1.16 | I -0.976 | A -0.416 | R -0.658
C1: Y -0.762 | W -0.941 | L -0.745
R32: F -0.514 | D -0.376 | M -0.18 | C -0.662 | K -0.204
A41: R -0.251 | F -0.379 | D -0.287 | V -0.102 | T -0.089 | Q 0.023 | H -0.068 | Y -0.184 | I -0.574
R11: C -0.497 | M -0.156 | L -0.049 | D 0.167 | A -0.034 | H -0.039 | V -0.007 | P 0.172
G40: D 0.343 | T -0.063 | N -0.134 | K 0.183 | Q -0.172 | S -0.052 | R 0.021 | E 0.13 | Y -0.168
N7: I -0.432 | P -0.764 | F -0.241 | M 0.173 | T -0.122
